# Source: publication PMC9170038
# B1: Eterna 7662739 (Exclusion - Arginine A) (ssRNA)
# RNA: CGCGGGCCACAUGAGGAUCACCCAUGUGAAGGAGCGGCGAAUAAGCCAGGUAGGUCGCGCAUGAAUAAAUCAUGUAGGUGGCGAA
# B2: Eterna 12242 (Exclusion 3) (ssRNA)
# RNA: GACUAGGCAGGAUAUACAUGAGGAUCACCCAUGUGUCUGCGAUAGGCACGUGAUUACUGUAGAAGGGCCUUGAC
# B3: Eterna 6080103 (Exclusion 1) (ssRNA)
# RNA: CCCGGACAUGAGGAUCACCCAUGUUAGGAUAUCUAGAGGAUCUAAACCGAAUAGAUCCAGAGAAGGGAUGUGGG
# B4: Eterna 6373941 (Exclusion NG 3) (ssRNA)
# RNA: GUCACGGUUAAUUCCGUGACGCGCAAACCUUGAGGAUCACCCAAGGAUAUCGACGUCAAUGACGUCGAGAAGGUGGUUGAGCGC
# B5: Eterna 6450941 (Small Loop Exclusion NG 3) (ssRNA)
# RNA: UGGACCGAGCUAUCGGUUGACUGGGAGGAUAUGACAUGAGGAUCACCCAUGUGGGAUCUAAAUUGUCAGAAGGCUCGUUCUGGG
# B6: Eterna 12668 (Exclusion 3) (ssRNA)
# RNA: UAAAAGCUAGGAUAUACAUGAGGAUCACCCAUGUCACGGGUCCACUCAUCCUAUACGUGUAGAAGGAGCGACCC
# B7: Eterna 5862108 (Exclusion NG 1) (ssRNA)
# RNA: UCACGGGAUUGAGGAUAUAUAUUAAUUUUUUUUAUAGAAGGCAAAAUGUUAGAUUAUUCACUAUACAUGAGGAUCACCCAUGUU
# B8: Eterna 6453699 (Inverted Same State NG 2) (ssRNA)
# RNA: AGUUUGUUUGAGAAGGUGAAGUGGAAACAUGAGGAUCACCCAUGUAUUAGGAAGCCUGGUUUUGUCAAGGAUAUCGGGUAAACA
# B9: Eterna 7734974 (Same State - Theophylline A) (ssRNA)
# RNA: AAAAUAAAUAAAACACGUAACAUGAAGGAUACCAGACAGGAAACUGUCCCUUGGCAGCCUCUACAUGAGGAUCACCCAUGUCGUG
# B10: Eterna 6451659 (Inverted Exclusion NG 1) (ssRNA)
# RNA: GCGUGGUUCUAGAAGGUGCUAGCGAUAAGCUAGCAAGGAUAUAGACAUGAGGAUCACCCAUGUCUUAGUGAAAUGGACACACGC
# B11: Eterna 7653809 (Same State - Theophylline B) (ssRNA)
# RNA: UGUAUGUGAUUUGAUACCAGACCAGCUGGUGGUACUUGAGGAACACCCAAGUAGGUUUGGGUCCCUUGGCAGCAAAUCGCAUACU
# B12: Eterna 7612197 (Same State - Arginine B) (ssRNA)
# RNA: ACGUAAAGCAGAAGGAGCGUCUUCAAUUUACAUGAGGAUCACCCAUGUUUUGUGAUCAUAUGACAGGUAGGUCGCUGAAGUACGA
# B13: Eterna 1752 (Same State - Tryptophan B) (ssRNA)
# RNA: CUUUUACAGUCGGCCGCCACUGACAGCACUUCAAAGACAGUAUAAGGGUAGUGAUGUUACUUUAUCAGGACCGGGACUACCUAAC
# B14: Eterna 12641 (Exclusion 3) (ssRNA)
# RNA: AAUAGCUAAGGAUAUACAUGAGGAUCACCCAUGUAAAACACUACUUGGAACCGCCUCGGUAGAAGGUAGAAAAU
# B15: Eterna 7692390 (Exclusion - Arginine A) (ssRNA)
# RNA: AGUAGGAAACUACAAUCCUCUCUUACUGAAGGAGCGCGUGAAAACGCAGGUAGGUCGCAGGAUUGGAGAGUGAUGUUCUCCUUAA
# B16: Eterna 6443967 (Same State NG 2) (ssRNA)
# RNA: CUAUAGAUAUGAGGAUAUGUAUAUCCAACAUGAGGAUCACCCAUGUUGAUGAUCACGUAUGUAAAGCAGAAGGCAUAUCUAUAG
# B17: Eterna 9406 (Exclusion 4) (ssRNA)
# RNA: UUCAUGUGAGGAUAUGUGAUCUGCUUUCUGUUUAGAUGAUCACAGAAGGCACAUGAGGAUCACCCAUGUAGAUC
# B18: Eterna 6381351 (Inverted Exclusion NG 3) (ssRNA)
# RNA: CGAUAUAUGAAGGGCGAAAGCCCACAUGAGGAUCACCCAUGUAGAAGGCGGGCCGCAACGCGGCCCGAGGAUAUAUAAUAUACA
# B19: Eterna 6461477 (Inverted Same State NG 1) (ssRNA)
# RNA: GCUGCAUGUGAGAAGGCGAUCAUGAAACAUGAUCGAGGAUAUCAUGUAAACAUGAGGAUCACCCAUGUAUGGGUAUUAAGCAGC
# B20: Eterna 7670795 (Exclusion - Tryptophan B) (ssRNA)
# RNA: GGAUAGGACACGGCCGCCACUACCUAGGAUACUAGCAACAUUUGGGUACGUGAGGAUCACCCACGUAGGACCGGGUGUCCUAUCG
# B21: Eterna 6145156 (Exclusion NG 1) (ssRNA)
# RNA: UUAAAUCAUGUAGGAUAUGCAUGGCGAAGCUACGCAGAAGGACAUGAGGAUCACCCAUGUUAUAGCUACCGAAUAAGGUGGCAA
# B22: Eterna 7697396 (Exclusion - Arginine B) (ssRNA)
# RNA: UGAUAGGACAGAAGGAGCGGGCUAGUCAAAGACUAGCAAACGUUAAUAACAGGAGUGAUGUUCCAGGUAGGUCGCUGUCCUAUCU
# B23: Eterna 7709739 (Same State - Tryptophan B) (ssRNA)
# RNA: UAUAUAGUGACGGCCGCCACUAUAUUAAUGUUUAGGUUAGAGUGAUGUUUUGAUUAAUAUUUUUAUAGGACCGGGUUAUAUGUUA
# B24: Eterna 6453269 (Small Loop Same State NG 3) (ssRNA)
# RNA: CAGCGAUAGCUAAAGUAUCUAUCAGAGGAUAUUCAUGAAACAUGAGGAUCACCCAUGUGAAACUGGGAGAAGGCUGAUAGAUAG
# B25: Eterna 7707528 (Exclusion - Tryptophan A) (ssRNA)
# RNA: GGGAUGUAGUGAUGUUAUAUUGGAUGUAGACGAGGACCGGUACGGCCGCCACUCGUGAUGGCUGCUAGCACGUUUCGAUGUUUGC
# B26: Eterna 15533 (Exclusion 1) (ssRNA)
# RNA: UCUCGACAUGAGGAUCACCCAUGUCAGGAUAUUGUGUUUGAGGUUUUUUACCUUUUGACAAGAAGGGAUGUGUG
# B27: Eterna 6430560 (Small Loop Same State NG 3) (ssRNA)
# RNA: ACUUAAAUACCCAAAAGUCGGGCGGAGGAUAUGGAGCUUCCACCACAUGAGGAUCACCCAUGUCUUCAGAAGGCCGCCCUUGGA
# B28: Eterna 7652698 (Same State - Arginine A) (ssRNA)
# RNA: CGGUCGGUCGGCCGGUGAUUAUGGGAUGAAGGAGCGUGGGAAGCUACAGGUAGGUCGCAUCCGAAACAUCACGAUCACGGAUGUU
# B29: Eterna 6033767 (Exclusion 3) (ssRNA)
# RNA: AGGGUAGUAGGAUAUACAUGAGGAUCACCCAUGUUUCCAUUACGUGACUGGUCCUAGUGUAGAAGGGCUAGCAC
# B30: Eterna 6124182 (Same State NG 2) (ssRNA)
# RNA: GUAGCAUGAUUAGGAUAUUCAGCGAAUAGAUUGACAUGAGGAUCACCCAUGUGGCGAAAGCCGAGGGAGAAGGGAUGAUGCUAC
# B31: Eterna 6128104 (Same State NG 3) (ssRNA)
# RNA: GCUCGAUGAGCUGUCUACAUGAGGAUCACCCAUGUAGAUGGGCAGGAUAUUUACGUGCUUUAUGUAGAGAAGGGCCCAUCGAGC
# B32: Eterna 6406790 (Exclusion NG 3) (ssRNA)
# RNA: GUACUGAAGCUUUGCUUUAGUCGUACAUGAGGAUCACCCAUGUAGGAUAUGGUAGGCUUUGCUUACUAGAAGGAUAGAGUGAUU
# B33: Eterna 6461519 (Inverted Same State NG 1) (ssRNA)
# RNA: GUGCCUAACUAGAAGGCCCAAUGCAAAGCAUCGGGAGGAUAUGGGUUUAAUAAAUAAACAUGAGGAUCACCCAUGUGGCACAAA
# B34: Eterna 11866 (Sensor v3, turn-off variant 2) (ssRNA)
# RNA: CUUAGCCUAAAAUCACGCAAGCUUUCUGCUUGUCUUAAGACAUGAGGAUCACCCAUGUCCGGGCUGAACUUAUGGAA
# B35: Eterna 7734981 (Same State - FMN A) (ssRNA)
# RNA: UGUGAGCUGUCGACAAAAGUCGACUAAAGCGAGGAUAUGACGAAAGUCAGAAGGCGUCAAUAAUGGAGUGAUGUUCCUGCUCACU
# B36: Eterna 6449046 (Small Loop Same State NG 1) (ssRNA)
# RNA: AAUAAACACACAGGAUAUAGCAUCGUCGUUGCGAACUUAGCGACGACGAUGCUAGAAGGGUGAACACAUGAGGAUCACCCAUGU
# B37: Eterna 6402672 (Exclusion NG 2) (ssRNA)
# RNA: UGGCCCGCCGGAGGAUAUCUACUCUGUGGUGCACUGCGUUUGCAAUACAUGAGGAUCACCCAUGUAGAGAAGGCCGAGGGCACA
# B38: Eterna 6395528 (Inverted Small Loop Exclusion NG 1) (ssRNA)
# RNA: ACAUGGUAGUAGAAGGGUAUUACUUUAGAUACAACCAUUUGUUUAGUUUAUACAGGAUAUGCUUACAUGAGGAUCACCCAUGUU
# B39: Eterna 5978372 (Brourd's mod of Exclusion 4) (ssRNA)
# RNA: GCGUCUCCUGUCAGGAUAUGCACCGGCUCGCCGGCGUAGAAGGGACAUGAGGAUCACCCAUGUGGUCUACACUU
# B40: Eterna 6083193 (Exclusion 6) (ssRNA)
# RNA: CCAAGUUCGUAGGAUAUAGAUGCCUUAGGGCAAUUAGAAGGAUGGACAUGAGGAUCACCCAUGUCGGAUUCUGU
# B41: Eterna 7732393 (Same State - FMN B) (ssRNA)
# RNA: AUUUUUUUGUCAGGAUAUUAGUGUGGGUUUGGUUUGUUAGUGAUGUUGAUAUUUGUUUUAUGUAUUUAAGAAGGGAUUUAGCGGU
# B42: Eterna 6401867 (Inverted Exclusion NG 1) (ssRNA)
# RNA: CCGACGCCUCAGAAGGCACUCGCAUAAUGCGAGUGAGGAUAUGAGGAUCACCCAUAUCAACGUCGGAGUCACCGAAACGGUGAC
# Biological target: MS2 coat protein, dlFG mutant (Escherichia phage MS2, UniProt P03612, del68-81insG)
# Assay: 4 mM Mg2+; no ligand; RNA-MaP array; 100 mM Tris-HCl pH 7.5, 80 mM KCl, 4 mM MgCl2, 0.1 mg/mL BSA, 1 mM DTT, 0.01 mg/mL yeast tRNA, 0.01% Tween-20; protein 1.5 nM to 3 uM; 37 C (Table S3)
# Conditions: chain copies: 2; label: tethered by stalled RNA polymerase
row,Binder,Kd
1,B1,18.3 nM
2,B2,330 nM
3,B3,34.3 nM
4,B4,53.8 nM
5,B5,264 nM
6,B6,17.4 nM
7,B7,25.5 nM
8,B8,15.2 nM
9,B9,246 nM
10,B10,4.84 nM
11,B11,177 nM
12,B12,127 nM
13,B13,> 3000 nM
14,B14,20.6 nM
15,B15,> 3000 nM
16,B16,8.38 nM
17,B17,141 nM
18,B18,7.35 nM
19,B19,272 nM
20,B20,12.4 nM
21,B21,91.1 nM

row,Binder,Kd
1,B22,> 3000 nM
2,B23,> 3000 nM
3,B24,14.2 nM
4,B25,> 3000 nM
5,B26,29.8 nM
6,B27,100 nM
7,B28,74.9 nM
8,B29,17 nM
9,B30,165 nM
10,B31,191 nM
11,B32,54.4 nM
12,B33,46 nM
13,B34,18.5 nM
14,B35,> 3000 nM
15,B36,195 nM
16,B37,269 nM
17,B38,9.28 nM
18,B39,84.3 nM
19,B40,15.8 nM
20,B41,> 3000 nM
21,B42,11.1 nM
